Laboratory results from article PMC11799434 (2025).

Molecular target: MT-100
Assay: BLI

B1: extracellular domain of human Tie2 fused with Fc (hTie2-ECD-Fc) (Fc fusion)
chain: AMDLILINSLPLVSDAETSLTCIASGWRPHEPITIGRDFEALMNQHQDPLEVTQDVTREWAKKVVWKREKASKINGAYFCEGRVRGEAIRIRTMKMRQQASFLPATLTMTVDKGDNVNISFKKVLIKEEDAVIYKNGSFIHSVPRHEVPDILEVHLPHAQPQDAGVYSARYIGGNLFTSAFTRLIVRRCEAQKWGPECNHLCTACMNNGVCHEDTGECICPPGFMGRTCEKACELHTFGRTCKERCSGQEGCKSYVFCLPDPYGCSCATGWKGLQCNEACHPGFYGPDCKLRCSCNNGEMCDRFQGCLCSPGWQGLQCEREGIQRMTPKIVDLPDHIEVNSGKFNPICKASGWPLPTNEEMTLVKPDGTVLHPKDFNHTDHFSVAIFTIHRILPPDSGVWVCSVNTVAGMVEKPFNISVKVLPKPLNAPNVIDTGHNFAVINISSEPYFGDGPIKSKKLLYKPVNHYEAWQHIQVTNEIVTLNYLEPRTEYELCVQLVRRGEGGEGHPGPVRRFTTASIGLPPPRGLNLLPKSQTTLNLTWQPIFPSSEDDFYVEVERRSVQKSDQQNIKVPGNLTSVLLNNLHPREQYVVRARVNTKAQGEWSEDLTAWTLSDILPPQPENIKISNITHSSAVISWTILDGYSISSITIRYKVQGKNEDQHVDVKIKNATITQYQLKGLEPETAYQVDIFAENNIGSSNPAFSHELVTLPESQAPADLGGGKMLL
- Kd: 2.5 nM
- koff: 0.0011 s⁻¹
